Target: Htz1(T46C)-2xFLAG (yeast H2A.Z with a cysteine probe) (yeast)
Test: cross-linking; VivosX: disulfide cross-linking in living yeast cells with 180 uM 4-DPS for 20 min at 30 C; TCA fixation; non-reducing SDS-PAGE and anti-FLAG immunoblot, bands normalised to H4; WT cells (swc2 and swr1 deletion cells also tested, with fewer ZZ and AZ adducts)

percent of bulk H2A.Z in the H2A.Z-to-H2A.Z cross-linked adduct (WT cells)	percent of bulk H2A.Z in the H2A-to-H2A.Z cross-linked adduct (WT cells)	Substance
12%	–	Htz1(T46C)-2xFLAG (yeast H2A.Z with a cysteine probe) (natural protein)
–	57%	2xV5-Hta1(N39C) (yeast H2A with a cysteine probe) (natural protein)

— publication PMC12068740
